Experimental data as given in patent US10729768B2, “Combination of anti-CD20 antibody and PI3 kinase selective inhibitor” (TG Therapeutics, Inc., priority 2012, dated 2020).

Columns and labels:
Raji Cells = assay: cell cycle assay, flow cytometry; type: cell-based; conditions: for G0/G1, percentage of the cell population / G2/M, percentage of the cell population / S, percentage of the cell population / Sub G0, percentage of the cell population: 72 h
Description: (§1) A cell cycle assay reagent (Millipore) was used to determine the effect of S-isomer of a compound of formula A, UBX, and combinations thereof on the cell cycle in cancerous cells. […] The cells were transferred to microfuge tubes to receive 50 μl of cell cycle reagent and incubated for 30 minutes at RT away from light. Cells were then diluted with 300-400 μl PBS, and a minimum of 10,000 events were acquired on a Guava® easyCyte™ flow cytometer. The data was analyzed with Express Pro software and the percentage of the cell population in different cell cycle stages with respect to control was presented in histograms.

DB Cells = assay: cell cycle assay, flow cytometry; type: cell-based; conditions: for G0/G1, percentage of the cell population / G2/M, percentage of the cell population / S, percentage of the cell population / Sub G0, percentage of the cell population: DB cells, 72 h
Description: as §1

CD20-positive cells = assay: B cell depletion from human whole blood (HWB), flow cytometry, CD20; type: cell-based; conditions: human whole blood, 24 hrs
Description: (§2) A flow cytometry assay was used to compare the ability of S-isomer of compound of formula A, Ublituximab (Ubx), and combinations thereof to deplete B cells from human whole blood (HWB). In this assay, 50 μl of HWB sample was treated with either S-isomer of a compound of formula A (1000 nM), UBX (100 μg/ml to 0.1 μg/ml), or UBX in combination with S-isomer of a compound of formula A at 1000 nM and incubated for 24 hrs at 37° C. and 5% CO2. 20 μl of treated sample was taken in a 1.5 ml centrifuge tube and labeled with CD45 FITC and CD19 PE or CD20 FITC antibody and incubated in the dark for 1 hour at RT. 1 ml of red blood cell (RBC) lysing solution was added, and tubes were centrifuged at 3000 rpm for 10 minutes. […] The tubes were vortexed, and 5000 events were acquired on a Guava® easyCyte™ flow cytometer and analyzed with Incyte Software.
(§3) Gated population of CD45-positive cells were further analyzed for CD19. The number of cells that were positive for CD45 and CD19 was calculated, and the data was expressed as the percentage of CD19 positive cells in the population. CD20-positive populations were gated with fluorescence positive minus unlabeled cells, and the data was expressed as the percentage of CD20-positive cells in the population. The loss of CD19/CD20 population from control was calculated and expressed as % depletion with respect to control.

CD19+ B-cell = assay: LPS-induced proliferation in HWB, flow cytometry, CD19; type: cell-based, human; conditions: 72 hrs
Description: Flow cytometry was used to study the effect of S-isomer of a compound of formula A, Ubx, and combinations thereof on LPS-induced proliferation of CD19 and CD20 cells in HWB. In these experiments, 250 μl of diluted (1:3.5 with RPMI-HG Media) HWB sample was treated with either S-isomer of a compound of formula A (10 μM to 0.1 μM), UBX (100 μg/ml to 0.1 μg/ml) or UBX with S-isomer of a compound of formula A at 1000 nM for 15 minutes followed by 20 μg/ml LPS induction and incubated for 72 hrs at 37° C. and 5% CO2. 20 μl of treated sample was taken in a 1.5 ml centrifuge tube and labeled with CD20 FITC and CD19 PE antibody and incubated in the dark for 1 hour at RT. 1 ml of RBC lysing solution was added and tubes were centrifuged at 3000 rpm for 10 minutes. Supernatant was aspirated, and 250 μl of PBS was added to the pellet. Tubes were vortexed, and 5000 events were acquired on a Guava® easyCyte™ flow cytometer and analyzed with Incyte Software.
Gated population of lymphocytes positive cells were further analyzed for CD19 and CD20. Cells positive for CD19 and/or CD20 were calculated, and data were expressed as the percentage positive cells in the population. The loss of positive population from control with LPS induction was calculated and expressed as % inhibition with respect to control.

CD19-positive cells = assay: B cell depletion from human whole blood (HWB), flow cytometry, CD19; type: cell-based; conditions: human whole blood, doses from 1 to 100,000 ng/ml, 24 hrs
Description: as §2, §3

[1] = tested on: Daudi, RPMI-8226, Raji, and U266B1 cells; assay: in situ caspase-3 kit, apoptosis (Example 3), cell lines tested; type: cell-based; conditions: cell lines tested, 24 hrs
Description: In order to determine the effect of S-isomer of a compound of formula A, UBX, and combinations thereof on apoptosis in cancer cells, an in situ caspase-3 kit (Millipore) was used. Cells were plated in a 6 well plate at a concentration of 0.5×10^6 cells/ml, treated with either S-isomer of a compound of formula A (1000 nM), UBX (100 μg/ml to 0.1 μg/ml), or UBX with S-isomer of a compound of formula A at 1000 nM, and incubated for 24 hrs at 37° C. and 5% CO2. The cells were then transferred to microfuge tubes to receive 10 μl of freshly prepared FLICA™ reagent and incubated for 1 hour at 37° C. and 5% CO2 away from light. After extensive washes with wash buffer, test samples were adjusted to equalize the number of cells in PBS. 100 μl of each cell suspension was transferred to black 96-well plates in duplicates, and the fluorescence was read at an excitation wavelength of 490 nm and an emission wavelength of 520 nm in a plate reader. The fluorescence intensity for a DMSO control was subtracted from that of test compounds. Data was expressed as a percent of the maximum response (100%) and plotted accordingly.

B1: UBX: monoclonal antibody that targets a specific and unique epitope on CD20, bioengineered for enhanced clinical activity and potency (antibody, V domains shown)
VH: QAYLQQSGAELVRPGASVKMSCKASGYTFTSYNMHWVKQTPRQGLEWIGGIYPGNGDTSYNQKFKGKATLTVGKSSSTAYMQLSSLTSEDSAVYFCARYDYNYAMDYWGQGTSVTVSS
VL: QIVLSQSPAILSASPGEKVTMTCRASSSVSYMHWYQQKPGSSPKPWIYATSNLASGVPARFSGSGSGTSYSFTISRVEAEDAATYYCQQWTFNPPTFGGGTRLEIK
modifications: antibody fragment
With B1 the “G0/G1, percentage of the cell population” value (Raji Cells; UBX 0.001 ng/ml) was 50.52, the “G2/M, percentage of the cell population” value (Raji Cells; UBX 0.001 ng/ml) was 33.66 and the “S, percentage of the cell population” value (Raji Cells; UBX 0.001 ng/ml) was 10.61. The “Sub G0, percentage of the cell population” value (“Sub G0, percentage” below) (Raji Cells; UBX 0.001 ng/ml) was 4.35, the “G0/G1, percentage of the cell population” value (Raji Cells; UBX 0.01 ng/ml) was 54.54 and the “G2/M, percentage of the cell population” value (Raji Cells; UBX 0.01 ng/ml) was 25.08. The “S, percentage of the cell population” value (Raji Cells; UBX 0.01 ng/ml) was 12.65, the “Sub G0, percentage” value (Raji Cells; UBX 0.01 ng/ml) was 5.51 and the “G0/G1, percentage of the cell population” value (Raji Cells; UBX 0.1 ng/ml) was 41.11. For the same molecule, the “G2/M, percentage of the cell population” value (Raji Cells; UBX 0.1 ng/ml) was 22.00, the “S, percentage of the cell population” value (Raji Cells; UBX 0.1 ng/ml) was 8.93 and the “Sub G0, percentage” value (Raji Cells; UBX 0.1 ng/ml) was 23.73. The “G0/G1, percentage of the cell population” value (Raji Cells; UBX 1 ng/ml) was 39.72, the “G2/M, percentage of the cell population” value (Raji Cells; UBX 1 ng/ml) was 15.35 and the “S, percentage of the cell population” value (Raji Cells; UBX 1 ng/ml) was 14.82. For the same molecule, the “Sub G0, percentage” value (Raji Cells; UBX 1 ng/ml) was 27.32, the “G0/G1, percentage of the cell population” value (Raji Cells; UBX 10 ng/ml) was 45.01 and the “G2/M, percentage of the cell population” value (Raji Cells; UBX 10 ng/ml) was 12.90. The “S, percentage of the cell population” value (Raji Cells; UBX 10 ng/ml) was 8.15, the “Sub G0, percentage” value (Raji Cells; UBX 10 ng/ml) was 31.86 and the “G0/G1, percentage of the cell population” value (Raji Cells; UBX 100 ng/ml) was 22.19. For the same molecule, the “G2/M, percentage of the cell population” value (Raji Cells; UBX 100 ng/ml) was 33.74, the “S, percentage of the cell population” value (Raji Cells; UBX 100 ng/ml) was 11.05 and the “Sub G0, percentage” value (Raji Cells; UBX 100 ng/ml) was 34.78. The cell cycle effect (Raji Cells; 72 hours) was “increased the number of Sub GO cells”, the “G0/G1, percentage of the cell population” value (DB Cells; UBX 0.001 ng/ml) was 54.38 and the “G2/M, percentage of the cell population” value (DB Cells; UBX 0.001 ng/ml) was 34.02. The “S, percentage of the cell population” value (DB Cells; UBX 0.001 ng/ml) was 9.45, the “Sub G0, percentage” value (DB Cells; UBX 0.001 ng/ml) was 0.59 and the “G0/G1, percentage of the cell population” value (DB Cells; UBX 0.01 ng/ml) was 54.99. For the same molecule, the “G2/M, percentage of the cell population” value (DB Cells; UBX 0.01 ng/ml) was 34.79, the “S, percentage of the cell population” value (DB Cells; UBX 0.01 ng/ml) was 7.73 and the “Sub G0, percentage” value (DB Cells; UBX 0.01 ng/ml) was 0.73. For the same molecule, the “G0/G1, percentage of the cell population” value (DB Cells; UBX 0.1 ng/ml) was 56.34, the “G2/M, percentage of the cell population” value (DB Cells; UBX 0.1 ng/ml) was 38.40 and the “S, percentage of the cell population” value (DB Cells; UBX 0.1 ng/ml) was 12.34. For the same molecule, the “Sub G0, percentage” value (DB Cells; UBX 0.1 ng/ml) was 1.10, the “G0/G1, percentage of the cell population” value (DB Cells; UBX 1 ng/ml) was 51.36 and the “G2/M, percentage of the cell population” value (DB Cells; UBX 1 ng/ml) was 40.07. The “S, percentage of the cell population” value (DB Cells; UBX 1 ng/ml) was 6.46, the “Sub G0, percentage” value (DB Cells; UBX 1 ng/ml) was 0.52 and the “G0/G1, percentage of the cell population” value (DB Cells; UBX 10 ng/ml) was 49.52. The “G2/M, percentage of the cell population” value (DB Cells; UBX 10 ng/ml) was 40.56, the “S, percentage of the cell population” value (DB Cells; UBX 10 ng/ml) was 10.07 and the “Sub G0, percentage” value (DB Cells; UBX 10 ng/ml) was 0.56. The “G0/G1, percentage of the cell population” value (DB Cells; UBX 100 ng/ml) was 45.98, the “G2/M, percentage of the cell population” value (DB Cells; UBX 100 ng/ml) was 46.55 and the “S, percentage of the cell population” value (DB Cells; UBX 100 ng/ml) was 7.66. For the same molecule, the “Sub G0, percentage” value (DB Cells; UBX 100 ng/ml) was 0.67, the cell cycle effect (DB Cells; Diffuse Large B-cell Lymphoma (DB) cells, 72 hours) was “modest G2/M arrest” and the “reduction in CD20+ B-cells” value (CD20-positive cells) was “dose-dependent reduction”. The “effect on CD19+ cells (LPS-induced proliferation)” value (CD19+ B-cell) was “minimal effect”, the “depletion of B-cells” value (CD19-positive cells) was 20-30% and the “ability to induce Caspase-3 activity” value [1] was “limited ability”.
